Here are results for one molecule from patent US20260035452A1 (THE UNIVERSITY OF BIRMINGHAM, priority 2022, published 2026).

The subject of this experiment is Human dermal blood endothelial cells (HDBEC). The experiment is described as follows: HDBEC stimulation (flow cytometry, IL-6 Elisa). The class given is cell-based. As to conditions: 100 ng/ml in combination with TNF-α (100 U/ml), 24 h. Here is the method:
FIG. 10: Human dermal blood endothelial cells (HDBEC) were treated with: IL-17 vehicle (Ctrl), IL-17 or FM-0410 (100 ng/ml), alone or in combination with TNF-α (100 U/ml) for 24 h. Cells were washed, gated in their totality and singlet before the identification of IL-17Rs (RA and RC) (A, B), ICAM (C) and VCAM (D) expression. Histogram values (expressed as MIF) indicate the total positive cells (A-D). In (E) are shown phase-contrast micrographs of confluent monolayers of untreated or treated (as reported before) HDBEC. Total adhesion (expressed as INT/mm^2, F) and % of transmigration (G) are calculated with Image Pro programme (DataCell, Finchampstead). Inflammatory supernatants from all experimental conditions were assayed by Elisa for IL-6 (H) expressed in pg/ml. Data were presented as means±S.D. of n=3 healthy donors. Statistical analysis was conducted by one-way ANOVA followed by Bonferroni's for multiple comparisons. ^#P≤0.05, ^##P≤0.01, ^###P≤0.001, ^####P≤0.0001 vs Ctrl group; *P≤0.05 vs TNF-α+IL-17 group; ^∘P≤0.05, ^∘∘∘P≤0.001, ^∘∘∘∘P≤0.0001 vs TNF-α group.
Human dermal blood endothelial cells (HDBEC): Primary human dermal blood endothelial cells (HDBECs) were purchased from PromoCell and cultured in the manufacturer's recommended endothelial cell growth medium MV (PromoCell, Heidelberg, Germany). HDBECs were seeded onto 12-well tissue culture plates after 4 passages at a seeding density yielding confluent monolayers. HDBEC monolayers were washed in endothelial cell growth medium MV warmed to 37° C. and stimulated with IL-17 or FM-0410 (100 ng/ml) alone or in a combination with TNF-α (100 U/ml) for 24 h at 37° C. Cells were stimulated for 24 h, before staining with IL-17Rs (RA or RC) or ICAM/VCAM adhesion receptors using a Flow cytometry assay. Supernatants were collected and measured to evaluate IL-6 or TNF-α levels.
Flow Cytometry: HDBEC, collected after 24 h of treatment, were washed with PBS without Ca^2+ and Mg^2+ containing 25 mM lactose for 20 min at room temperature with occasional mixing. […] Protein expression was analysed by flow cytometry on a Dako CyAn (Beckman Coulter, High Wycombe, U.K.), and data were analysed using MRFIow and FlowJo software operation. The unspecific binding of antibodies was quantified by using corresponding isotype controls.
Elisa assay: The levels of IL-6 at 24 h were measured using commercially available enzyme-linked immunosorbent assay kits (ELISA kit, R&D System, Milan, Italy) according to the manufacturer's instructions. […] The addition of 100 μl of the substrate and stop solution represented the last steps before the reading of absorbance (measured at 450 nm) on a microplate reader. Antigen levels in the samples were determined using a standard curve and expressed as pg/ml.
(In general: In flow cytometry, cells or beads pass a laser one at a time.)

B1: IL-17: recombinant mouse IL-17 purchased from R&D System; full-length cytokine used as comparator and stimulus (protein, UniProt Q62386 26-158, looked up)
Interleukin-17A: AAIIPQSSACPNTEAKDFLQNVKVNLKVFNSLGAKVSSRRPSDYLNRSTSPWTLHRNEDPDRYPSVIWEAQCRHQRCVNAEGKLDHHMNSVLIQQEILVLKREPESCPFTFRVEKMLVGVGCTCVASIVRQAA
In the case of B1, the ICAM expression result is listed as “upregulation”, the IL-17RA receptor expression entry is “No effects”, the IL-17RC receptor expression entry is given as “No effects” and the VCAM expression entry is “upregulation”.
